Paper PMC10681739, “High-throughput data and modeling reveal insights into the mechanisms of cooperative DNA-binding by transcription factor proteins”

B1: Table S3 B row 887 (dsDNA)
DNA 1: CACCCTGCCACCTCCCTAAACTCCCCGCACAGGCCG
DNA 2: CGGCCTGTGCGGGGAGTTTAGGGAGGTGGCAGGGTG
B2: Table S3 C row 81 (dsDNA)
DNA 1: GGCCCATTGTCCGCGCTTCCGTTCAGGCTCCGCCTC
DNA 2: GAGGCGGAGCCTGAACGGAAGCGCGGACAATGGGCC
B3: Table S3 B row 1562 (dsDNA)
DNA 1: CCACACCCACAAGGCCAGCCTCAATTCCTCACTCCT
DNA 2: AGGAGTGAGGAATTGAGGCTGGCCTTGTGGGTGTGG
B4: Table S3 B row 808 (dsDNA)
DNA 1: TGTGTTAGTGGTTTTCTCTTACGGCAGGCAGTGGGC
DNA 2: GCCCACTGCCTGCCGTAAGAGAAAACCACTAACACA
B5: Table S3 C row 65 (dsDNA)
DNA 1: TTCACTGAACGGCTTCATCCTGTGCTTTGGGAGGCA
DNA 2: TGCCTCCCAAAGCACAGGATGAAGCCGTTCAGTGAA
B6: Table S3 C row 101 (dsDNA)
DNA 1: AGTCAGAAGTTTCAGCGGAAATTGAAGCGCGGCCCT
DNA 2: AGGGCCGCGCTTCAATTTCCGCTGAAACTTCTGACT
B7: Table S3 C row 198 (dsDNA)
DNA 1: GGCAGCAGCCTTCGGCTTCCGCTTTTCGGCTTTCGC
DNA 2: GCGAAAGCCGAAAAGCGGAAGCCGAAGGCTGCTGCC
B8: Table S3 C row 70 (dsDNA)
DNA 1: GGCCGCGCCCAGACCCGGAAGCGGGGCCGTCACGTG
DNA 2: CACGTGACGGCCCCGCTTCCGGGTCTGGGCGCGGCC
B9: Table S3 B row 594 (dsDNA)
DNA 1: CCCCTCCCCACACCACAACAAACCTGATCCTTGCGC
DNA 2: GCGCAAGGATCAGGTTTGTTGTGGTGTGGGGAGGGG
B10: Table S3 C row 166 (dsDNA)
DNA 1: ACCCCGGGTCGGAGTGTTCCGGCCCGGCCAGCCCCG
DNA 2: CGGGGCTGGCCGGGCCGGAACACTCCGACCCGGGGT
B11: Table S3 B row 3020 (dsDNA)
DNA 1: TTTTATCGTCCGCGAGCCCTCATCCCACAACTCTTC
DNA 2: GAAGAGTTGTGGGATGAGGGCTCGCGGACGATAAAA
B12: Table S3 C row 100 (dsDNA)
DNA 1: TGGCTAGGGGCAGGGCTTCCGGCCTCGAACTTTAAC
DNA 2: GTTAAAGTTCGAGGCCGGAAGCCCTGCCCCTAGCCA
B13: Table S3 B row 736 (dsDNA)
DNA 1: CTCTGAACCGCATGATCTCTAAGACCACTTGCTGTT
DNA 2: AACAGCAAGTGGTCTTAGAGATCATGCGGTTCAGAG
B14: Table S3 C row 62 (dsDNA)
DNA 1: GGGAGAAGCGGGAGGCGGAACGCCCGAGGGCGCCCT
DNA 2: AGGGCGCCCTCGGGCGTTCCGCCTCCCGCTTCTCCC
B15: Table S3 C row 29 (dsDNA)
DNA 1: CCGGTCTCGCGATAGCGGAAAGGGCTGTACCATCTG
DNA 2: CAGATGGTACAGCCCTTTCCGCTATCGCGAGACCGG
B16: Table S3 C row 172 (dsDNA)
DNA 1: TGGCTGAGACTGAGACGGAAGGATCCTTGCGCCCAG
DNA 2: CTGGGCGCAAGGATCCTTCCGTCTCAGTCTCAGCCA
B17: Table S3 B row 2805 (dsDNA)
DNA 1: AGCTTAATGCGGTTGGAGAACACCCTGTCTTATTGA
DNA 2: TCAATAAGACAGGGTGTTCTCCAACCGCATTAAGCT
B18: Table S3 B row 2568 (dsDNA)
DNA 1: GTCGCCTGCGGTGACTCAGCTCTTACGGTCACCGCC
DNA 2: GGCGGTGACCGTAAGAGCTGAGTCACCGCAGGCGAC
B19: Table S3 C row 27 (dsDNA)
DNA 1: TGCGCCGCGCCCCGGGTTCCGGAATGCACTCTGAAC
DNA 2: GTTCAGAGTGCATTCCGGAACCCGGGGCGCGGCGCA
B20: Table S3 C row 11 (dsDNA)
DNA 1: AAAAGCATCCCCAGACTTCCTGTTGGGAGCTCTCTG
DNA 2: CAGAGAGCTCCCAACAGGAAGTCTGGGGATGCTTTT
B21: Table S3 C row 121 (dsDNA)
DNA 1: CACTCATTCCAGATCAGGAAGTGATCAGTGCCTCAA
DNA 2: TTGAGGCACTGATCACTTCCTGATCTGGAATGAGTG
B22: Table S3 C row 173 (dsDNA)
DNA 1: CGCTATCGGGGCAGCAGGAAGTCGCCATCTTGAATC
DNA 2: GATTCAAGATGGCGACTTCCTGCTGCCCCGATAGCG
B23: Table S3 B row 3109 (dsDNA)
DNA 1: ACTCCACCTACCCACAAAACGCACTGCCTCAGAAGC
DNA 2: GCTTCTGAGGCAGTGCGTTTTGTGGGTAGGTGGAGT
B24: Table S3 B row 3800 (dsDNA)
DNA 1: GACCCAGATACCACACCTACCCTGCTGCCTTTTCTA
DNA 2: TAGAAAAGGCAGCAGGGTAGGTGTGGTATCTGGGTC
B25: Table S3 C row 20 (dsDNA)
DNA 1: TACCTCTGTAACAGGTTTCCTGTCCCTGCCCAGCTT
DNA 2: AAGCTGGGCAGGGACAGGAAACCTGTTACAGAGGTA
B26: Table S3 C row 106 (dsDNA)
DNA 1: ACCAGGCGACGATGCCGGAACGCGCAAGTACGCGAG
DNA 2: CTCGCGTACTTGCGCGTTCCGGCATCGTCGCCTGGT
B27: Table S3 C row 26 (dsDNA)
DNA 1: GACACTGGAGGGAGCCGGAAGTACCTCGGAGTTTTA
DNA 2: TAAAACTCCGAGGTACTTCCGGCTCCCTCCAGTGTC
B28: Table S3 B row 1720 (dsDNA)
DNA 1: GCCTGCGGTGTGGACTCGCATCATGTCCTCTTTCTG
DNA 2: CAGAAAGAGGACATGATGCGAGTCCACACCGCAGGC
B29: Table S3 B row 116 (dsDNA)
DNA 1: GTAGTTCCTTGTCTTTCCTTCTGCCGCCGCAGGCCT
DNA 2: AGGCCTGCGGCGGCAGAAGGAAAGACAAGGAACTAC
B30: Table S3 C row 74 (dsDNA)
DNA 1: GTCATCTCGTTGACACTTCCGCTGACCCGTGCAGTT
DNA 2: AACTGCACGGGTCAGCGGAAGTGTCAACGAGATGAC
B31: Table S3 C row 79 (dsDNA)
DNA 1: TTGCAAGTACACCTGCATCCGGTGGCATGTTTTAGT
DNA 2: ACTAAAACATGCCACCGGATGCAGGTGTACTTGCAA
B32: Table S3 B row 1567 (dsDNA)
DNA 1: ACGGAGCTGTGGTTTAACGTTTCAGGTTCGTGGCTA
DNA 2: TAGCCACGAACCTGAAACGTTAAACCACAGCTCCGT
B33: Table S3 B row 2151 (dsDNA)
DNA 1: CTAAGGCTGTGGTTTGTACCCTAGCAGCAAAGGCAG
DNA 2: CTGCCTTTGCTGCTAGGGTACAAACCACAGCCTTAG
B34: Table S3 B row 232 (dsDNA)
DNA 1: TGTTGTGTGGTTTCAGAGATACGTCCTTGGGTTGCC
DNA 2: GGCAACCCAAGGACGTATCTCTGAAACCACACAACA
B35: Table S3 C row 188 (dsDNA)
DNA 1: GCAAGCGGGCCTGGGCGGATGTCTCGGGCGCGTCGG
DNA 2: CCGACGCGCCCGAGACATCCGCCCAGGCCCGCTTGC
B36: Table S3 B row 1244 (dsDNA)
DNA 1: GGAACCCGCAGAAGCCCCGCCTCCCGTAAGCGGAGC
DNA 2: GCTCCGCTTACGGGAGGCGGGGCTTCTGCGGGTTCC
B37: Table S3 C row 132 (dsDNA)
DNA 1: GAGAGACCTGGGCCACTTCCGGGAGAACCCGAGCTT
DNA 2: AAGCTCGGGTTCTCCCGGAAGTGGCCCAGGTCTCTC
B38: Table S3 B row 1286 (dsDNA)
DNA 1: CCCAATTGCCTTTGCTCTGCTGTCTGCCAACCGCAA
DNA 2: TTGCGGTTGGCAGACAGCAGAGCAAAGGCAATTGGG
B39: Table S3 C row 180 (dsDNA)
DNA 1: CTGTGCAGCGTCCTCCTTCCGGGTGCAGGCGGGCCT
DNA 2: AGGCCCGCCTGCACCCGGAAGGAGGACGCTGCACAG
B40: Table S3 B row 1078 (dsDNA)
DNA 1: ATTTGTCACCAAACCACAGAGAGGACATGATTGTAA
DNA 2: TTACAATCATGTCCTCTCTGTGGTTTGGTGACAAAT
B41: Table S3 C row 128 (dsDNA)
DNA 1: GGTCCCGCCCCTGGCCGGAAGTTCTGGCGGCGGAGC
DNA 2: GCTCCGCCGCCAGAACTTCCGGCCAGGGGCGGGACC
B42: Table S3 B row 3059 (dsDNA)
DNA 1: AGGCTGTGGTTATCTGCAAACAGCCCCCGTCCATCC
DNA 2: GGATGGACGGGGGCTGTTTGCAGATAACCACAGCCT
B43: Table S3 C row 194 (dsDNA)
DNA 1: TGGGCAAGCCTTGGGCTTCCGGAGCCAAAAGGCCCA
DNA 2: TGGGCCTTTTGGCTCCGGAAGCCCAAGGCTTGCCCA
B44: Table S3 B row 2476 (dsDNA)
DNA 1: CAGGTCACCGCAGTCCCCACCACTGCCTGTTATTGT
DNA 2: ACAATAACAGGCAGTGGTGGGGACTGCGGTGACCTG
B45: Table S3 C row 8 (dsDNA)
DNA 1: GCCAGGCCGGCGGCGCGGAAGGTCTCCTGTGCCTGC
DNA 2: GCAGGCACAGGAGACCTTCCGCGCCGCCGGCCTGGC

Molecular target: RUNX1 (Homo sapiens, UniProt Q01196)
Sequence (Q01196 whole entry): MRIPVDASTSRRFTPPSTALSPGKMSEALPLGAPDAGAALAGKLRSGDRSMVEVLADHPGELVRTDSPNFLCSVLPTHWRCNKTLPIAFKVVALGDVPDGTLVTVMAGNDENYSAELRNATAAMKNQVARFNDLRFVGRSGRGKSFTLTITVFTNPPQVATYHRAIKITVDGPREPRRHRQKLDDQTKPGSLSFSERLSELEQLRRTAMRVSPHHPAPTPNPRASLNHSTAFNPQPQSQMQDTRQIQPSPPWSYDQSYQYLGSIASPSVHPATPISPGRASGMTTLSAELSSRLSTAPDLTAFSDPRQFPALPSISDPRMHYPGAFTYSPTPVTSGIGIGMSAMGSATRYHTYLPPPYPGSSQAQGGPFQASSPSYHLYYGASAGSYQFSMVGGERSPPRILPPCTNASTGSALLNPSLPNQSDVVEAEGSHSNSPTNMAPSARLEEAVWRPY
Assay: gcPBM; 2 nM RUNX1
Settings: tags: N-terminal GST (pDEST15), kept (PMC6008103); label: surface-attached array probe

Binder	binding signal
B1	1620 PBM fluorescence, median of replicate spots
B2	725 PBM fluorescence, median of replicate spots
B3	1900 PBM fluorescence, median of replicate spots
B4	2040 PBM fluorescence, median of replicate spots
B5	718 PBM fluorescence, median of replicate spots
B6	665 PBM fluorescence, median of replicate spots
B7	686 PBM fluorescence, median of replicate spots
B8	680 PBM fluorescence, median of replicate spots
B9	1700 PBM fluorescence, median of replicate spots
B10	724 PBM fluorescence, median of replicate spots
B11	1790 PBM fluorescence, median of replicate spots
B12	688 PBM fluorescence, median of replicate spots
B13	1820 PBM fluorescence, median of replicate spots
B14	722 PBM fluorescence, median of replicate spots
B15	697 PBM fluorescence, median of replicate spots
B16	723 PBM fluorescence, median of replicate spots
B17	1930 PBM fluorescence, median of replicate spots
B18	1800 PBM fluorescence, median of replicate spots
B19	659 PBM fluorescence, median of replicate spots
B20	697 PBM fluorescence, median of replicate spots
B21	680 PBM fluorescence, median of replicate spots
B22	725 PBM fluorescence, median of replicate spots
B23	2010 PBM fluorescence, median of replicate spots

Binder	binding signal
B24	1960 PBM fluorescence, median of replicate spots
B25	673 PBM fluorescence, median of replicate spots
B26	676 PBM fluorescence, median of replicate spots
B27	723 PBM fluorescence, median of replicate spots
B28	1680 PBM fluorescence, median of replicate spots
B29	1720 PBM fluorescence, median of replicate spots
B30	697 PBM fluorescence, median of replicate spots
B31	712 PBM fluorescence, median of replicate spots
B32	1650 PBM fluorescence, median of replicate spots
B33	2080 PBM fluorescence, median of replicate spots
B34	1750 PBM fluorescence, median of replicate spots
B35	720 PBM fluorescence, median of replicate spots
B36	1640 PBM fluorescence, median of replicate spots
B37	721 PBM fluorescence, median of replicate spots
B38	1860 PBM fluorescence, median of replicate spots
B39	722 PBM fluorescence, median of replicate spots
B40	1740 PBM fluorescence, median of replicate spots
B41	714 PBM fluorescence, median of replicate spots
B42	1590 PBM fluorescence, median of replicate spots
B43	610 PBM fluorescence, median of replicate spots
B44	1870 PBM fluorescence, median of replicate spots
B45	689 PBM fluorescence, median of replicate spots
